Article PMC7069974

Target: His-flXPA (human) (UniProt P23025)
Experiment: AFM
Conditions: single dG-C8-AAF at 30% from 3' end; EMSA: 8 nM DNA, 20 mM HEPES pH 7.5, 150 mM NaCl, 5 mM DTT, 0.5 mg/ml BSA, 5% glycerol, 25 min at room temperature; gel 5% native, 0.5x TBE, 4 C. AFM: 100 nM …; scale: fold specificity for dG-C8-AAF over non-damaged DNA

Chain of His-flXPA (human) (P23025 whole entry): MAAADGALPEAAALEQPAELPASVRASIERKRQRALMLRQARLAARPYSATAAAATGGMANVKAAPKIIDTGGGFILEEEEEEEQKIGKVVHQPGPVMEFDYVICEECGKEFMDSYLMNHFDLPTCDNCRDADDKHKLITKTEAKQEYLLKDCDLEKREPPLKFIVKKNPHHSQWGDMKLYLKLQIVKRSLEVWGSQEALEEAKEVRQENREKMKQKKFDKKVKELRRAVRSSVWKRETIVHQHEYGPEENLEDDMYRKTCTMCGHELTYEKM

Substance: AAF538
- binding signal: 660
